Measured values published in US20060183161A1.

Molecular target: IL-1 receptors on fibroblasts (human) (UniProt P14778)
Experiment: cell-based or functional assay

UniProt P14778, sequence (P14778 18-569): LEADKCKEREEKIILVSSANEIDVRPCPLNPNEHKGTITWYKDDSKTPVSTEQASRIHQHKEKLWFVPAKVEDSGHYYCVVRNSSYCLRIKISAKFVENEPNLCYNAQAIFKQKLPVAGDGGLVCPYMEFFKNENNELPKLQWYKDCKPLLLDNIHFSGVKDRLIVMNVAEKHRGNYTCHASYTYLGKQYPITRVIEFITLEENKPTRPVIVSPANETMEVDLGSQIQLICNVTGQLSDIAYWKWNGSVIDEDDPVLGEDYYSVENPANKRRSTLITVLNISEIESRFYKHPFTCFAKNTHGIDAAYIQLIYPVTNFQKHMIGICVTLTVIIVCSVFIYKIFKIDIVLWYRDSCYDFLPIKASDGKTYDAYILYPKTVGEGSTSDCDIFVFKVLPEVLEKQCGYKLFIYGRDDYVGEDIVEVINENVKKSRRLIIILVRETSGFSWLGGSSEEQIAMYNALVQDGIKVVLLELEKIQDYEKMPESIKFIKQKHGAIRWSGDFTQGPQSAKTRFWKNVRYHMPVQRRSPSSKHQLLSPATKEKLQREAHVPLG

| IL-6 production from fibroblasts in response to 0.1 nM IL-1b (ELISA) [% reduction] | IL-1-like activity: IL-6 secretion by fibroblasts and endothelial cells (ELISA) (% of the activity of 0.1 nM IL-1b) | Substance |
| --- | --- | --- |
| 95 | – | recombinant human IL-1 receptor antagonist (rhIL-1ra) (from UniProt P18510 28-177) (ligand) |
| – | < 1 | rhIL-1L1 Form B (from UniProt Q9UBH0 1-155) (ligand) |
